The source of these data is patent US20200339680A1.

The target of experiment [1] is human TMEM106B (human) (UniProt Q9NUM4). As to the kind of experiment: FACS A549.
The target is the same in experiment [2]. The experiment is described as follows: FACS HeLa.
The target is the same in experiment [3]. As to the kind of experiment: FACS U251.
For experiment [4], the target named is mouse TMEM106B (mouse) (UniProt Q80X71). The experiment is described as follows: FACS Neuro2a.

Turning to Negative ctrl #3 (antibody), the MFI in experiment [1] came to 95 MFI; in experiment [2], 143 MFI; in experiment [3], 164 MFI; in experiment [4], 216 MFI.

Regarding Negative ctrl #1 (antibody), the MFI was found to be 148 MFI in experiment [1], 152 MFI in experiment [2], 165 MFI in experiment [3] and 220 MFI in experiment [4].

For Negative ctrl #2 (antibody), the MFI was found to be 162 MFI in experiment [1], 149 MFI in experiment [2], 165 MFI in experiment [3] and 235 MFI in experiment [4].
